The target in experiment [1] is T1, recombinant cynomolgus CD3de (delta epsilon subunits) (cynomolgus, UniProt Q95LI8 22-105; Q95LI5 22-117). Description: SPR, Biacore T200; cynomolgus CD3de immobilized on CM5 chip; 1:1 fit. On the procedure: (§1) The binding affinities of VP103 (chimeric alpaca anti-CD3 VHH F10-human IgG4) and VP104 (Humanized F10A VHH (C55A)-IgG4) for recombinant human CD3de (delta epsilon subunits) and recombinant cynomolgus CD3de (delta epsilon subunits) were assessed by SPR on a Biacore T200 (GE Healthcare). FIGS. 13a and 13b show the SPR sensorgrams for VP103 to human CD3de and cynomolgus CD3de immobilized onto the surface of CM5 sensor chip. FIGS. 14a and 14b show the SPR sensorgrams for VP104 to human CD3de and cynomolgus CD3de immobilized onto the surface of CM5 sensor chip. The data were fit with a 1:1 fitting model. […] These constructs can also be paired with anti-CD25 VP008, which is based on basiliximab, which is known to cross-react with cynomolgus CD25.
Background: Surface plasmon resonance follows binding to a sensor surface in real time, without labels.

The target in experiment [2] is T1, recombinant cynomolgus CD3de (delta …). As to the kind of experiment: SPR (Biacore T200), cynomolgus CD3de immobilized on CM5 chip, VP104 injected at 3.125-100 nM, 1:1 fit. The method, then: as §1
For experiment [3], the target named is T2, recombinant human CD3de (Delta epsilon fusion) (human, UniProt P04234 22-105; P07766 23-126).
T2 construct: It is written here as two chains; also called recombinant human CD3de (delta epsilon subunits)
As to the kind of experiment: SPR, Biacore T200; human CD3de immobilized on CM5 chip; 1:1 fit. On the procedure: as §1

The target in experiment [4] is T2, recombinant human CD3de (Delta epsilon …). As to the kind of experiment: SPR (Biacore T200), human CD3de immobilized on CM5 chip, VP104 injected at 3.125-100 nM, 1:1 fit. On the procedure: as §1
Experiment [5] shares this target. Description: SPR, Biacore T200; human CD3de immobilized on CM5 chip.
Experiment [6] addresses T3, recombinant human CD25 (human, UniProt P01589 22-213, limits assumed).
T3 construct: also called IL-2 receptor subunit a
T3 sequence (looked up): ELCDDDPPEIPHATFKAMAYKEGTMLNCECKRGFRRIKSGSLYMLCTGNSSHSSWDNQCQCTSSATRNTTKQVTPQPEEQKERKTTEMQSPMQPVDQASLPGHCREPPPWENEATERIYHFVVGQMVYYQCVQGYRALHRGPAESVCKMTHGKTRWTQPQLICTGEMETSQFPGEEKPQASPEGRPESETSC
As to the kind of experiment: SPR, Biacore T200; human CD25 immobilized on CM5 chip.

The target in experiment [7] is T1, recombinant cynomolgus CD3de (delta …). Description: SPR (Biacore T200), cynomolgus CD3de immobilized on CM5 chip, VP103 injected at 3.125-100 nM, 1:1 fit. On the procedure:
as §1

Experiment [8] deals with T2, recombinant human CD3de (Delta epsilon …). As to the kind of experiment: SPR (Biacore T200), human CD3de immobilized on CM5 chip, VP103 injected at 3.125-100 nM, 1:1 fit. On the procedure: as §1
In experiment [9] the target is T3, recombinant human CD25. Description: SPR; human CD25 immobilized on CM5 chip (legend of FIG. 8a).
Experiment [10] addresses T3, recombinant human CD25. As to the kind of experiment: SPR (Biacore T200), human CD25 immobilized on CM5 chip, VP100 injected at 3.125-100 nM, 1:1 fit.
For experiment [11], the target named is T3, recombinant human CD25. Description: SPR (Biacore T200), human CD25 immobilized on CM5 chip, VP101 injected at 3.125-100 nM, 1:1 fit.
Experiment [12] addresses T3, recombinant human CD25. As to the kind of experiment: SPR, Biacore T200; human CD25 immobilized on CM5 chip; 1:1 fit.
Experiment [13] has as its target T3, recombinant human CD25. As to the kind of experiment: SPR; human CD25 immobilized on CM5 chip (legend of FIG. 8b).

T2 sequence (P04234 22-105, stated change not applied, chain 1 of 2): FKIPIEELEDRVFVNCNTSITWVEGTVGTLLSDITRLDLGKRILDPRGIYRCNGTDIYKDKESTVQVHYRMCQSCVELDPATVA
T2 sequence (P07766 23-126, stated change not applied, chain 2 of 2): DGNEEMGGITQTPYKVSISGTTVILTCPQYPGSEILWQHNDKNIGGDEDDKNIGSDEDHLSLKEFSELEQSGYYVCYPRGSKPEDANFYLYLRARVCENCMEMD
T1 sequence (Q95LI8 22-105, stated change not applied, chain 1 of 2): as the sequence (P04234 22-105, stated change not applied, chain 1 of 2) above, with I5V, N15K, I20V, S32T, D33N, I34N, T64A, S74N, V83L counted along it
T1 sequence (Q95LI5 22-117, stated change not applied, chain 2 of 2): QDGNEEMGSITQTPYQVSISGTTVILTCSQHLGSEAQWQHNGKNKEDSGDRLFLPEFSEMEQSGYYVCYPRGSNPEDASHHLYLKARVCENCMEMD

B1: VP104 (Humanized F10A VHH (C55A)-IgG4) (Fc fusion)
chain: EVQLLESGGGLVQPGGSLRLSCAASGFTLDDYAIGWVRQAPGKGREGVSAIRRSDGHTYYADSVKGRFTISSDNSKNTVYLQMNSLRAEDTAVYYCAAGTGWGRYFYAGMDYWGQGTLVTVSSGGGGSGGGGSGGGGSKYGPPCPPCPAPEAAGGPSVFLFPPKPKDTLMISRTPEVTCVVVDVSQEDPEVQFNWYVDGVEVHNAKTKPREEQFNSTYRVVSVLTVLHQDWLNGKEYKCAVSNKGLPSSIEKTISKAKGQPREPQVYTLPPSQEEMTKNQVSLTCLVKGFYPSDIAVEWESNGQPENNYKTTPPVLDSDGSFFLYSRLTVDKSRWQEGNVFSCSVMHEALHNHYTQKSLSLSLGK
notes: also called humanized Anti-CD3 nanobody F10 with free Cys removed and with V-IGG4-A-Fc
By Kd is commonly meant a measure of binding affinity in units of concentration. A word on the koff: it is the first-order rate constant of dissociation. One may read the kon as the rate constant with which the complex forms. Consider B1, for which the results for the Kd in experiment [1] and in experiment [3] were 13.3 nM and 14.2 nM, respectively. The figures for the koff in [2] and in [4] were 0.0516 s⁻¹ and 0.0651 s⁻¹, respectively. The kon in experiment [2] amounted to 3.89e+06 M⁻¹ s⁻¹; in experiment [4] it was 4.58e+06 M⁻¹ s⁻¹.

B2: VP002 (huOKT3 VCD3-L3H3 with V-IGG4-A) (antibody, human IgG4 S228P, kappa, F234A L235A, V domains shown)
VH: QVQLVQSGAEVKKPGASVKVSCKASGYTFTRYTMHWVRQSPGQGLEWMGYINPSRGYTNYNQKFQGRVTMTTDKSTSTAYMELSSLRSEDTAVYYCARYYDDHYSLDYWGQGTTVTVSS
VL: EIQLTQSPATLSLSPGERATLSCRASSSVSYMNWYQQKPGQAPRRWIYDTSKLATGIPARFSGSGSGTDYTLTISSLEPEDAAVYYCQQWSSNPFTFGQGTKLEIKR
notes: 4 chain IgG format (huVIT-100), IgG4; also called huOKT3 H3L3; huVIT-100
In the case of B2, the Kd in [5] came out at 12.4 nM.

B3: VP008 (VCD25-L2H2 with V-IGG4-B) (antibody, human IgG4 S228P, kappa, F234A L235A, V domains shown)
VH: QVQLVQSGAEVKKPGASVKVSCKASGYSFTRYWMHWVRQPPGQRLEWMGAIYPGNSDTSYSQKFEGRVTITADTSASTAYMELSSLRSEDTAVYYCSRDYGYYFDFWGQGTTVTVSS
VL: EIVLTQSPDFQSVTPKEKVTITCRASSSRSYMQWYQQKPDQSPKRLIYDTSKSASGVPSRFSGSGSGTDYTLTINSLEAEDAATYYCHQRSSYTFGQGTKLEIKR
notes: 4 chain IgG format (huVIT-101), IgG4; also called huBasiliximab H2L2; huVIT-101
Consider B3, for which, in the experiment with recombinant human CD25 [6], the Kd was determined as 1.2 nM.

B4: VP001 (Teplizumab H:C114S with V-IGG4-A) (antibody, human IgG4 S228P, kappa, F234A L235A, V domains shown)
VH: QVQLVQSGGGVVQPGRSLRLSCKASGYTFTRYTMHWVRQAPGKGLEWIGYINPSRGYTNYNQKVKDRFTISRDNSKNTAFLQMDSLRPEDTGVYFCARYYDDHYSLDYWGQGTPVTVSS
VL: DIQMTQSPSSLSASVGDRVTITCSASSSVSYMNWYQQTPGKAPKRWIYDTSKLASGVPSRFSGSGSGTDYTFTISSLQPEDIATYYCQQWSSNPFTFGQGTKLQITR
notes: 4 chain IgG format (chVIT-100), IgG4 Fc with S228P, F234A, L235A, K322A; also called chVIT-100
Regarding B4, the Kd in [5] came to 5.2 nM.

B5: VP103 (chimeric alpaca anti-CD3 VHH F10-human IgG4) (Fc fusion)
chain: QVQLQESGGGLVQAGGSLTLSCAASGFTLDDYAIGWFRQAPGKEREGVSCIRRSDGHTYSADSVKGRFTISSDNAKNTVYLQMNNLKPEDTAVYYCAAGTGWGRYFYAGMDYWGKGTQVTVSSGGGGSGGGGSGGGGSKYGPPCPPCPAPEAAGGPSVFLFPPKPKDTLMISRTPEVTCVVVDVSQEDPEVQFNWYVDGVEVHNAKTKPREEQFNSTYRVVSVLTVLHQDWLNGKEYKCAVSNKGLPSSIEKTISKAKGQPREPQVYTLPPSQEEMTKNQVSLTCLVKGFYPSDIAVEWESNGQPENNYKTTPPVLDSDGSFFLYSRLTVDKSRWQEGNVFSCSVMHEALHNHYTQKSLSLSLGK
notes: VHH-linker-IgG4 Fc chain; also called Alpaca Anti-CD3 nanobody F10 with V-IGG4-A-Fc
B5: the Kd worked out at 2.8 nM in experiment [1] and 3.7 nM in experiment [3]. The koff stood at 0.00112 s⁻¹ in experiment [7] and 0.000972 s⁻¹ in experiment [8]. Further, the results for the kon in [7] and in [8] were 406000 M⁻¹ s⁻¹ and 261000 M⁻¹ s⁻¹, respectively.

B6: VP100 (ch7G7-IgG4) (antibody, V domains shown)
VH: EVQLVESGGDLVQPRGSLKLSCAASGFTFSSYGMSWVRQTPDKRLELVATINGYGDTTYYPDSVKGRFTISRDNAKNTLYLQMSSLKSEDTAMYFCARDRDYGNSYYYALDYWGQGTSVTVSS
VL: QIVLSQSPAILSASPGERVTMTCRASSSVSFMHWLQQKPGSSPKPWIYATSNLASGVSARFSGSGSGTSYSLTITRVEAEDAATYYCQQWSSNPPAFGGGTKLEIKR
notes: Chimeric 7G7 on human IgG4
For B6, the Kd with recombinant human CD25 [9] is 3.8 nM. Further, in the experiment with recombinant human CD25 [10], the Kd was determined as 9 pM, the koff worked out at 3.56e-06 s⁻¹ and the kon was 392000 M⁻¹ s⁻¹.

B7: VP101 (hu7G7-IgG4) (antibody, V domains shown)
VH: EVQLVESGGGLVQPGGSLRLSCAASGFTFSSYGMSWVRQAPGKRLELVATINGYGDTTYYPDSVKGRFTISRDNAKNTLYLQMNSLRAEDTAVYYCARDRDYGNSYYYALDYWGQGTLVTVSS
VL: EIVLTQSPATLSLSPGERATLSCRASSSVSFMHWLQQKPGQAPKPLIYATSNLASGIPARFSGSGSGTDYTLTISSLEPEDFAVYYCQQWSSNPPAFGGGTKVEIKR
notes: Humanized 7G7 on human IgG4
For B7, the Kd in the experiment with recombinant human CD25 [11] was 1 pM; with recombinant human CD25 [12], < 1 pM; with recombinant human CD25 [13], < 1 nM. Moreover, in the experiment with recombinant human CD25 [11], the koff turned out to be 1.64e-07 s⁻¹. Further, the kon in the experiment with recombinant human CD25 [11] amounted to 126000 M⁻¹ s⁻¹.

The values are drawn from patent US20240383980A1 (VITRUVIAE, published 2024).
